{
  "source": "paper PMC5405149",
  "data": [
    {"biological_target": "T1, r-YycF (His-GB1-YycF) (Staphylococcus epidermidis (1457?)) (UniProt Q8CQK0)", "T1 sequence": "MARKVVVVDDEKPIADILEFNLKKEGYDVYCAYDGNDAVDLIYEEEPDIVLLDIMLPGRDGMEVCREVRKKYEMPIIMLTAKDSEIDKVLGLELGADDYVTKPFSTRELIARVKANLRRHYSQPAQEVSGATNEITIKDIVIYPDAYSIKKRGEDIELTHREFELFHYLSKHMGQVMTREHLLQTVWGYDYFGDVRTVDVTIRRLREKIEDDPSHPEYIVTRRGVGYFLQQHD", "assay": "EMSA", "conditions": "EMSA: 20 nM DNA, 10 mM Tris pH 8.0, 25 mM KCl, 1 mM EDTA, 2.5 mM MgCl2, 5% glycerol, 37 C 30 min; footprinting: 200 ng probe, binding at 30 C 30 min, DNase I …", "values": [
      {"sequence": "AAACTAAATTGACCATCACTTAACTAGGTGCTCTGTTAAACTTTTGTTATAAATTAAAGATAGAAGCAACCTATTCATATAAAGTGGTATCTCTTGACAATTTTACTCGTTTATAAGATGTTATAATTATGTAGTGTATAAGGAGGCATA (double strand) [rpsA promoter 150 bp]", "binding": "binds"},
      {"sequence": "ATAATGCTAGAGGGACTTTTTCTAAAGACAGTCTACTTATTCGACTATCTATTAAGGTGGTTCATGGTAAAATGATACTAGTTTCATAACAAATCATTTACAATTTTGAATTACATCTTTAGAAATACGAGTTAATTGTTTAAGATGTAGCGTGAGGTG (double strand) [arlR promoter 159 bp]", "binding": "binds"},
      {"sequence": "ATGATAGGAATCATTACGGTTATTCATAAAAATTAGCATCCTATTTCATGTAATTGTAGTGTAAAAAATAGGCGTTTATTTTTATTTCAGTGTAACCTGCACG (double strand) [sceD promoter 103 bp]", "binding": "binds"},
      {"sequence": "ATTATTCAAATGCTTGTAGTTTTATAAGTCGCATTATTATTTTTAAATATTTTCACTATTGAATGGATTTTGATCTTCTTTATAAAAAATAAATAAAAGGTTTAAAGTTAAATAAAATTTAAAAAATAATAATTTATACAAAATGATATTTTTTTTAATCATAAATAATATGTAAAGTATTGCGTTAAAATGTAAAAGAAGGTAACATTACATACTAGATACATAAAATATATGTATCTTACATTTAAAATTAAATACATGGGAGGTATAAT (double strand) [aap promoter]", "binding": "binds"},
      {"sequence": "CACATTGCTATGTTAATTATTATCAAAAAGAATTTTCAGTAATTTTACATTCATGTAACAGTGTTTGTGTTGCTCAAAATAAAATACTTTAAAAAAGCTGAGCGTATCATTTCTATTCATATTACATAAATTAATTGGGTTAAATGAGATTGTGTAACAATATTAGCAAAAAATTACAAATCAATAACAATGCACACAAACATCAATTTTTCTGTTAGAGTATGGCTTGTCG (double strand) [ssaA1 promoter 232 bp]", "binding": "binds"},
      {"sequence": "CACGATTTTAGTATTGTCTTCAAAAAATCTTAGTATTTGCTATATATTATGTTAATACATGTATATCTTAGCATTATTTAAATAAGGAATGAATTATTTAAAGGTGAGCGCAACAAAATTTTAAGTATATTTTAACACTACCTTAACAGTCTTTAATGAATGATTTTATCACTATCTAATAGAACGTG (double strand) [murE promoter 188 bp]", "binding": "binds"},
      {"sequence": "CATCTATTCATTCAATCAAGTATTTTTATTCTTTATAAAACTATGTTAGCAAATTAAATTTTAATACACGTTTCATTAATTCAAATCCCATTCTTAACAAAAAATTTACAATAACTCTATTTTGATTTAATAAAAGATATGTAACATGAGAACTGTAAGAAATACATAT (double strand) [pstS promoter 167 bp]", "binding": "binds"},
      {"sequence": "TGATTTTATCGCTCATCATTTTTAATAAGATTATGAGACACTTATGTAAAAATTTAATATCTAGTTTGTTAAGAATTTGTAAATAGAATTGTGGTTATGTAAATTTTGTGATATTTTCAAGTAGGGACAAAACTGGATGTTGGCGAACATCAATAAATGATTACTATATATTAAATTTACACAATTTTTACAATATAAGAATTGCTAGTTACTTTTTATAATAATTGTAAATCAGTTCCTCAACCACTT (double strand) [pitR promoter 249 bp]", "binding": "binds"},
      {"sequence": "TTACAAACCCCGTCATATCTAGGACTAACAGACCTCAATTATATAAATAAGTAATTTTTTTTGAACATACTCTTGTAAATATTGTGTAATAAACTAAAATTATTGGTAAGCCCTACATTTGTAGTATTAGGAGGTCAAAAAAAGTGTCAAAATTTAAGTCTTTGCTTCTATTATTTGGCA (double strand) [qoxB promoter 180 bp]", "binding": "binds"},
      {"sequence": "TTCTAAAATCTCCCCCTTATTCAATTTTCTAAAAATATATTACAGAAAAATTAAGTTAAAATTACAAATATTACTGTTTCAGTATAACAACATTCTATTGCAAATTGAAATACTTTCGATTAGCATATGCTTTACAACCTAACTAACGAAAGGTAGGTGAAAAA (double strand) [ica intergenic region (icaR-icaA)]", "binding": "binds"}
    ]}
  ]
}
